{
  "source": "the supplement of paper PMC11502859",
  "note": "Several values for one entry are separate records, joined by “and”; a condition that tells them apart may be missing. Equal values may be shown once.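 Also: lentiviral eGFP-IRES-mCherry reporter pool sorted by FACS 96 h post-transduction, gated on mCherry-high cells, Illumina read counts normalized per million, median across four biological replicates.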",
  "data": [
    {"system": "HEK293T", "experiment": "median enrichment of reporter reads in eGFP-reduced (low/intermediate) vs eGFP-high sorted cells (eGFP-extension fusion abundance) (ratio); higher = stronger loss of eGFP-fusion protein abundance (more destabilising extension)", "values": [
      {"substance": "YTCGEGLSWTRPLPTASSLQVQLKPLSSGGRHVERAGRPTAAENRAGTGSSCSAFPSFGDAGSAAPKHLPAPHSTVSEDSSLL [CDC14B]", "median enrichment": 0.953},
      {"substance": "YTCPYSSRALNLLLTNHLLRC [KCNU1]", "median enrichment": 11.9},
      {"substance": "YTDYIGSFELTSDKGGKFRQHYDLINFIF [MSH6]", "median enrichment": 21.1},
      {"substance": "YTHMYDPYKCFKILKM [TRDN]", "median enrichment": 11.1},
      {"substance": "YTKYLKMGIILI [ST8SIA6]", "median enrichment": 10.3},
      {"substance": "YTLENMYVWLIKCFKLN [NOTCH2NLA]", "median enrichment": 7.83},
      {"substance": "YTLGKITYLSSCE [OR10G8]", "median enrichment": 13.7},
      {"substance": "YTPLCHFSGDPAFLIWK [CENPE]", "median enrichment": 5.97},
      {"substance": "YTPLFVVHYFD [KCNQ2]", "median enrichment": 7.27},
      {"substance": "YTPNNLLPPLAPVAYISS [TMEM169]", "median enrichment": 11.3},
      {"substance": "YTQKTNSIQSQ [ENDOD1]", "median enrichment": 1.93},
      {"substance": "YTSGKKIFTCAGL [DDX46]", "median enrichment": 3.47},
      {"substance": "YTSRTAT [NCOA6]", "median enrichment": 0.753},
      {"substance": "YTSVLNQDLTQKD [GTF2IRD1]", "median enrichment": 0.784},
      {"substance": "YTTMYFNKDHQC [LRP2BP]", "median enrichment": "1.43 and 3.14"},
      {"substance": "YVAMVKVSVAAAAMASRRRCWDCFALEPASGCPLQWLCYCMDCILDFMCMSQ [DYNLL2]", "median enrichment": 10.8},
      {"substance": "YVCAEESKTPFRATIPQ [SLC22A25]", "median enrichment": 1.62},
      {"substance": "YVCCLPSPSGHTLLYHTTGLDSGWRQIDTV [LIG3]", "median enrichment": 5.91},
      {"substance": "YVD [GLUL]", "median enrichment": 0.387},
      {"substance": "YVDLRQTLGGVKESHRYPKE [MAGEH1]", "median enrichment": 3.34},
      {"substance": "YVEGYKC [FIBIN]", "median enrichment": 1.05},
      {"substance": "YVFLKIKLKKEIFFLIKL [GALNT3]", "median enrichment": 6.22},
      {"substance": "YVFLQCVLQARFIITYRFMISKIK [CLEC3A]", "median enrichment": 9.75},
      {"substance": "YVFVIFNCSML [CRISP1]", "median enrichment": 8.9},
      {"substance": "YVGRSPRPLPSSGDNQQ [CPNE9]", "median enrichment": 0.56},
      {"substance": "YVHGLSLYPTALLCDSLMKLVTFTSQNFG [KDM4D]", "median enrichment": 7.32},
      {"substance": "YVI [UPRT]", "median enrichment": 1.22},
      {"substance": "YVLCCIPFSFLQMTMNFKLWGQCCNIFTFSNSQNLKNVKLCLVCFS [INPP4B]", "median enrichment": 5.86},
      {"substance": "YVLCYNGVIVPKCPH [OR51F2]", "median enrichment": 5.24},
      {"substance": "YVLIGLPAGCDSKA [CBX2]", "median enrichment": 14},
      {"substance": "YVLILPSH [HSPA4L]", "median enrichment": 10.7},
      {"substance": "YVLRWNSLGEHLMSQPIQLPHNPAEGRVRGE [WDR62]", "median enrichment": 7.76},
      {"substance": "YVNV [CLEC2B]", "median enrichment": 0.896},
      {"substance": "YVPTK [ZNF334]", "median enrichment": 0.591},
      {"substance": "YVPVSPFIAAFPWGRQ [CXCR5]", "median enrichment": "6.43 and 2.95"},
      {"substance": "YVRTVG [UFD1]", "median enrichment": 3.02},
      {"substance": "YVTTPRSSAFKTKRDWGSGEGEEEQEEKKYSELLQVTLIKNLL [NR5A2]", "median enrichment": 8.46},
      {"substance": "YVYLFLQEI [PI15]", "median enrichment": 4.25},
      {"substance": "YWAPSL [MSN]", "median enrichment": 2.04},
      {"substance": "YWCGK [NME7]", "median enrichment": 2.52},
      {"substance": "YWELLWQVPPE [C1orf115]", "median enrichment": 3.92},
      {"substance": "YWENPLLVHLKTPNSTIICQEIKRTTP [PCP4]", "median enrichment": 13.6},
      {"substance": "YWVFGLTGARMDLQRQL [GPR149]", "median enrichment": 5.42},
      {"substance": "YWWLVVMNSYSVASSLPASHLPSTSQLLPSLTEANIFI [NTRK3]", "median enrichment": 23.2},
      {"substance": "YYCTELP [ADAM18]", "median enrichment": 4.78},
      {"substance": "YYHMFSWYVN [ABHD10]", "median enrichment": 17.6},
      {"substance": "YYSKIKYINIYIYIYFRKKKKTNKQKNPTPVDTLIFPNEDFIYGMEWKKKQLF [BMP2]", "median enrichment": 49},
      {"substance": "YYVIRNLVAWPYLAAREPGRYVAGRLGMCPVKNSVDSLIKKKRKKDTMGTLYLVFILCMYRSSKKLHRISVTLYASGKQDWEL [CFAP61]", "median enrichment": 41.5},
      {"substance": "YYY [Tyr03]", "median enrichment": 1.14},
      {"substance": "YYYLQMKLTYTDLSSLMKKIRCYPIK [RBM11]", "median enrichment": 13},
      {"substance": "YYYY [Tyr04]", "median enrichment": 4.17},
      {"substance": "YYYYY [Tyr05]", "median enrichment": 22.4},
      {"substance": "YYYYYY [Tyr06]", "median enrichment": 2.81},
      {"substance": "YYYYYYY [Tyr07]", "median enrichment": 3.18},
      {"substance": "YYYYYYYY [Tyr08]", "median enrichment": 5.87},
      {"substance": "YYYYYYYYY [Tyr09]", "median enrichment": 4.03},
      {"substance": "YYYYYYYYYY [Tyr10]", "median enrichment": 6.9},
      {"substance": "ZNF28", "median enrichment": 1.64}
    ]}
  ]
}
